Measured values as given in paper PMC11321701, “Generation and Characterization of Novel Pan‐Cancer Anti‐uPAR Fluorescent Nanobodies as Tools for Image‐Guided Surgery” (Advanced Science, 2024).
Positions count from the first letter of the chain named. Like-named read-outs stand apart in the source and are kept apart here. Blank lines part the entries; values can stand above or below the binder they belong to.

Tests used:
[1] = molecular target: T1, recombinant murine urokinase plasminogen activator receptor (MuPAR) protein (Mus musculus, UniProt P35456); assay: SPR; kinetic binding parameters (ka, kd, KD) of purified Nbs toward recombinant H, M or CuPAR antigens; conditions: both partners purified
T1 construct: 'Extracellular domain' is said of the immunogen; also called murine uPAR
T1 sequence (P35456 whole entry, looked up, the tested form may be a part): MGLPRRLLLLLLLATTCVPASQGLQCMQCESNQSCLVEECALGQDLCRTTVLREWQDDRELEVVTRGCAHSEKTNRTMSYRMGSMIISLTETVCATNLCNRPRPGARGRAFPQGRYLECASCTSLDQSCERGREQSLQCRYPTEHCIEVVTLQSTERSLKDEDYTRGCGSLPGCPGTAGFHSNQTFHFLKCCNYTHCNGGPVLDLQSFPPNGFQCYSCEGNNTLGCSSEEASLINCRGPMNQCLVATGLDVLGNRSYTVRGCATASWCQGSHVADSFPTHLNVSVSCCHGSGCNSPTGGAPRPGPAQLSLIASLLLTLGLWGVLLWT

[2] = molecular target: T2, recombinant human urokinase plasminogen activator receptor (HuPAR) protein (Homo sapiens, UniProt Q03405)
Target sequence in this assay (Q03405 23-305): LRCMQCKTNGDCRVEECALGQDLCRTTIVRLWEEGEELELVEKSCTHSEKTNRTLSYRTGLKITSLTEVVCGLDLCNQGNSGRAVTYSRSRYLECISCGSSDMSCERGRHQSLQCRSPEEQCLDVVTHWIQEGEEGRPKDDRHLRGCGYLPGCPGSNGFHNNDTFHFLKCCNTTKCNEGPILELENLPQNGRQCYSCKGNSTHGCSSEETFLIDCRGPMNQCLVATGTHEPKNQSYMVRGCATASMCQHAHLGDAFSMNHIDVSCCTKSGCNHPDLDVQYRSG

[3] = molecular target: T2, recombinant human urokinase plasminogen …; assay: SPR; kinetic binding parameters (ka, kd, KD) of purified Nbs toward recombinant H, M or CuPAR antigens; conditions: both partners purified
Target sequence in this assay (Q03405 whole entry, looked up): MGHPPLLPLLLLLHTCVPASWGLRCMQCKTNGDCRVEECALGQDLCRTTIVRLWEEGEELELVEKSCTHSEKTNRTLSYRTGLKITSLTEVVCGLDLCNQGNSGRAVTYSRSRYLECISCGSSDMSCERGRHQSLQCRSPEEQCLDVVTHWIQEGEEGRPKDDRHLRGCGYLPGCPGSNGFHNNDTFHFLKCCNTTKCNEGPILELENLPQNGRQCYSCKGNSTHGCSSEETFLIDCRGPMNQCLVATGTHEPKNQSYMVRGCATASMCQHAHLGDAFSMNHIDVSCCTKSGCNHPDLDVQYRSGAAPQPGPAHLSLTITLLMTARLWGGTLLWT

[4] = molecular target: T1, recombinant murine urokinase …; assay: ELISA; BE-ELISA: bacterial extracts of Nb clones on H, M or CuPAR protein, against uncoated control; cross-reactivity screening; conditions: one partner purified

B3: 5H2 (Nb 18) (VHH)
VHH: QVQLQESGGGLAQPGGSLRLSCTASGFTSDYYGIGWFRQAPGKEREGVSCISSSDGSTYYADSVKGRFTISRDNAKNTVYLQMNSLKPEDTAVYYCATRGASCYYTGSYSLGYDYWGQGTQVTVSS
- Kd [2]: 4.7 nM

B4: Nb 15 (VHH)
VHH: B3 VHH with L11W, A12V, T23A, S29L
notes: Nanobody from a llama immunized with human and murine uPAR; The clone in bacterial extracts came before recloning into the expression vector, so its tags may differ from the purified form; also called anti-HuPAR Nb 15; lead anti-HuPAR/CuPAR Nanobody; source: E. coli WK6, purified from the periplasm (osmotic shock, IMAC, SEC); bacterial extracts for ELISA and SPR off-rate screening
- Kd [3]: < 10 nM
- binding result [4]: no binding

B5: 5B7 (Nb 17) (VHH)
VHH: B3 VHH with A12V, T23A, A24V, F27S, S29L, D30E
- Kd [2]: 2.3 nM

Other lines, results leading:

- Kd [1]: < 10 nM
B1: Nb 13 (VHH)
VHH: QVQLQESGGGLVQSGGSLRLSCAVSGIGFVYYAMRWWRQAPGKERELVAGITGASGNTNYAESVKDRFTISRDNASNTVYLQMNSLKPEDTAVYYCNAAPLIRFGPPKDYWGQGTQVTVSS
notes: Nb 13 is the only member of its family; Nanobody from a llama immunized with human and murine uPAR; also called lead anti-MuPAR Nanobody; source: E. coli WK6, purified from the periplasm (osmotic shock, IMAC, SEC)

- Kd [2]: 3 nM
B2: 5A5 (Nb 16) (VHH)
VHH: B3 VHH with A12V, T23A, A24I, S29L, T106S
